Data on 19 molecules can be found in patent US20240025965A1 (UNIVERSITEIT TWENTE, published 2024).

Where no end group is shown, it is not given here. PEG linker = not defined here; PEG = not defined here

To fix the notation:
B1: SGATEWLRWFNS (peptide)
peptide: {glass slide-PEG}-SGATEWLRWFNS
modifications: reading uncertain
notes: alanine-scan variant of AXI-I; fixed on the array by its N-terminus through a PEG linker; also called AXI-I with L3 replaced by alanine

The experiment deals with T1, rhIntegrin α11β1 (human, UniProt Q9UKX5 23-1141; P05556 21-728, limits assumed).
T1 construct: Bought from R&D Systems; also called α11β1 receptor; ITGA11 receptor
T1 sequence (Q9UKX5 23-1141 limits assumed, chain 1 of 2): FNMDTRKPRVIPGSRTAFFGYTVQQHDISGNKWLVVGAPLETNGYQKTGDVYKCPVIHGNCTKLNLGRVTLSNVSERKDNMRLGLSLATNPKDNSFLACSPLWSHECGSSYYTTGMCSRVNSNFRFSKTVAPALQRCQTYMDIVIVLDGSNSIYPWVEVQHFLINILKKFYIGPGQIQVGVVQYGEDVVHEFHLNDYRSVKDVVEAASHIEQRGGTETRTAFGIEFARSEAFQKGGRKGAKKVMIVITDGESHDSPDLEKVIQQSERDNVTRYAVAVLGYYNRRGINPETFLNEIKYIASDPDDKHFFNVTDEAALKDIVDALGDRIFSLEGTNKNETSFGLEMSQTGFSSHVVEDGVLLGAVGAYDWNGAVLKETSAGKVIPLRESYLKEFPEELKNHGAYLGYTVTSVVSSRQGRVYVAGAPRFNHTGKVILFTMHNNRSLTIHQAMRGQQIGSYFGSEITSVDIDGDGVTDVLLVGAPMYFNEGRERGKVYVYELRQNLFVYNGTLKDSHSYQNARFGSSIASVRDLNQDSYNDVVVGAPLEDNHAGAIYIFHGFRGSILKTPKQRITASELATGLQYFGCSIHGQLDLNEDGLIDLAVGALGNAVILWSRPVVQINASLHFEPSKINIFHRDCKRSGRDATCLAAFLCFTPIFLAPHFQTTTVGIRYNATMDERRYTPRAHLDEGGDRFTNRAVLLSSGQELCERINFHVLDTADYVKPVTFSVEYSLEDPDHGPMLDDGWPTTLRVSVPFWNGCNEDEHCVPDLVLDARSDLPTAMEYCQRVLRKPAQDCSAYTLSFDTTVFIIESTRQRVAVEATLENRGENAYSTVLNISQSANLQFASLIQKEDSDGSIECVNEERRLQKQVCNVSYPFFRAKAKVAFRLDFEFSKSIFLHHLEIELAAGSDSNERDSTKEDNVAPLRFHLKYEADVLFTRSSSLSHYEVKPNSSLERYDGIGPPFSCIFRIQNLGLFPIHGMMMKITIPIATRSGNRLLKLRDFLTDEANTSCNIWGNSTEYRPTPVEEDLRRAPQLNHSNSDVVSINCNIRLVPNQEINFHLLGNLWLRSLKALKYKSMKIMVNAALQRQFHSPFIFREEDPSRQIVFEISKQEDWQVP
T1 sequence (P05556 21-728 limits assumed, chain 2 of 2): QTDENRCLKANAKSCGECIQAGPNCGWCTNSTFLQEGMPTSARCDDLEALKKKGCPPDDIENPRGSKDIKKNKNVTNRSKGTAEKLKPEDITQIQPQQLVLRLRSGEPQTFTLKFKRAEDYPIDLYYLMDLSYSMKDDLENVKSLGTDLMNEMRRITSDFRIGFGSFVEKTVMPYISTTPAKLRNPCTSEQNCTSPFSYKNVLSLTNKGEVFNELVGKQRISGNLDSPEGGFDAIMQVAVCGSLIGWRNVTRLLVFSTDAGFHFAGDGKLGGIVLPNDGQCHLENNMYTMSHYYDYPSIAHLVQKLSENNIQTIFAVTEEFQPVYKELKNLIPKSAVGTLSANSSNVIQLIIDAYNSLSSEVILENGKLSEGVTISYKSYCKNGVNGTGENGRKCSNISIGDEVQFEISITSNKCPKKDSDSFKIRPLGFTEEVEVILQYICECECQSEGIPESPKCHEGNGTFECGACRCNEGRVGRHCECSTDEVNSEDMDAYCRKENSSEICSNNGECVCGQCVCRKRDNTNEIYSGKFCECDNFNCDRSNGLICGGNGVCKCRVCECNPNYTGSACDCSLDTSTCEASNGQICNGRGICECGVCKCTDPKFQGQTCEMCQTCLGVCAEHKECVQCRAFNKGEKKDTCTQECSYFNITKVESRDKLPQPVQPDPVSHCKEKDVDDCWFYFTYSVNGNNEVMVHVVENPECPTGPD
Description: peptide microarray: peptide fixed by its N-terminus through a PEG linker, incubated with α11β1 receptor (10 µg/ml), anti-ITGA11 antibody and fluorescent secondary antibody, signal of the antibodies alone subtracted. The protocol:
Peptide microarray was prepared by conjugating peptides at their N-terminal to a glass slide using a PEG linker. […] For the binding studies, the peptide array was blocked with 3% BSA in TBST for 2 hours. Then the array slide was washed 5 times in TB ST and subsequently incubated with the target receptor (α11β1, 10 μg/ml dissolved in PBS) for 1 hour at 37° C. The slides were washed with TBST and then incubated with primary antibody (1 μg/ml) against ITGA11 for 1 hour at 37° C. Then slides were washed and incubated with fluorescent dye labeled secondary antibodies for 30 minutes. The slides were washed with TBST and water and then dried and scanned with a microarray scanner to detect binding of the peptides. The enlightened spots were analyzed using ImageJ software. To determine the unspecific binding, a peptide array was incubated with only primary and secondary antibodies without the receptor incubation step. Then, the signal of unspecific binding was subtracted from the total binding to calculate specific binding.
On to {glass slide-PEG linker}-SGLTEWLRWF (reading uncertain), for which the binding result is given as “binds”.

As to {glass slide-PEG linker}-WLRWFNS (reading uncertain), the binding result is listed as “binds”.

For the molecule {glass slide-PEG}-GLTEWLRWFN (reading uncertain), the binding result was “binds”.

Consider {glass slide-PEG}-AGLTEWLRWFNS (reading uncertain, Alanine at position 1 of AXI-I), for which the binding result is “binds”.

For {glass slide-PEG linker}-SGLTEALRWFNS (reading uncertain, Alanine at position 6 of AXI-I), the binding result is “binds”.

With {glass slide-PEG linker}-SGLTEWLRWFNA (reading uncertain, Alanine at position 12 of AXI-I), the binding result is recorded as “binds”.

On to {glass slide-PEG linker}-SGLTEWARWFNS (reading uncertain, Alanine at position 7 of AXI-I), for which the binding result is reported as “binds”.

Take {glass slide-PEG linker}-SGLTEWLAWFNS (reading uncertain, Alanine at position 8 of AXI-I): the binding result is recorded as “binds”.

For the molecule {glass slide-PEG}-SALTEWLRWFNS (reading uncertain, Alanine at position 2 of AXI-I), the binding result is on record as “binds”.

Turning to B1, the binding result is given as “binds”.

{glass slide-PEG}-SGLAEWLRWFNS (reading uncertain, Alanine at position 4 of AXI-I): the binding result is listed as “binds”.

Take {glass slide-PEG}-SGLTAWLRWFNS (reading uncertain, Alanine at position 5 of AXI-I): the binding result is listed as “binds”.

For {glass slide-PEG linker}-SGLTEWLRAFNS (reading uncertain, Alanine at position 9 of AXI-I), the binding result was “binds”.

{glass slide-PEG linker}-SGLTEWLRWFN (reading uncertain): the binding result is reported as “binds”.

Turning to {glass slide-PEG}-EWLRWFNS (reading uncertain), the binding result was “binds”.

As to {glass slide-PEG}-LTEWLRWF (reading uncertain), the binding result is “binds”.

Turning to {glass slide-PEG}-LTEWLRWFNS (reading uncertain), the binding result is “binds”.

Regarding {glass slide-PEG linker}-TEWLRWFNS (reading uncertain), the binding result is reported as “binds”.

Take {glass slide-PEG}-GLTEWLRWFNS (reading uncertain): the binding result was “binds”.
